Substitutions are numbered along the chain they refer to. In names and notes the source's numbering stands.
B1: SMCHD1(24–580/E147A), seleno-methionine-labeled (domain or fragment, human, UniProt A6NHR9 24-580, looked up)
chain: GHRTVYLFDRREKESELGDRPLQVGERSDYAGFRACVCQTLGISPEEKFVITTTSRKEITCDNFDETVKDGVTLYLLQSVNQLLLTATKERIDFLPHYDTLVKSGMYEYYASEGQNPLPFALAALIDNSLSATSRNIGVRRIQIKLLFDETQGKPAVAVIDNGRGMTSKQLNNWAVYRLSKFTRQGDFESDHSGYVRPVPVPRSLNSDISYFGVGGKQAVFFVGQSARMISKPADSQDVHELVLSKEDFEKKEKNKEAIYSGYIRNRKPSDSVHITNDDERFLHHLIIEEKEKDSFTAVVITGVQPEHIQYLKNYFHLWTRQLAHIYHYYIHGPKGNEIRTSKEVEPFNNIDIEISMFEKGKVPKIVNLREIQDDMQTLYVNTAADSFEFKAHVEGDGVVEGIIRYHPFLYDRETYPDDPCFPSKLKDEDDEDDCFILEKAARGKRPIFECFWNGRLIPYTSVEDFDWCTPPKKRGLAPIECYNRISGALFTNDKFQVSTNKLTFMDLELKLKDKNTLFTRILNGQEQRMKIDREFALWLKDCHEKYDKQIKFTLFK
modifications: selenomethionine substituted for methionine
notes: Crystallised as a homodimer with one ATP per monomer; two homodimers in the asymmetric unit; also called SMCHD1 E147A; source: E. coli B834(DE3), purified (glutathione resin, TEV cleavage, Superdex200 with Mg2+/ATP, MonoQ)
B2: SMCHD1(24–580) Q345R (domain or fragment, human, UniProt A6NHR9 24-580, looked up)
chain: B1 chain with A124E, Q322R
notes: SMCHD1, human, residues 24-580 with the arhinia variant Q345R; PDB 6MW7 holds the same limits with E147A; Human disease variant (arhinia); also called p.Q345R; source: E. coli Rosetta2(DE3), purified (Glutathione 4B Sepharose, TEV cleavage, Superdex200)
B3: SMCHD1(24–580) E473G (domain or fragment, human, UniProt A6NHR9 24-580, looked up)
chain: B1 chain with A124E, E450G
notes: SMCHD1, human, residues 24-580 with the arhinia variant E473G; PDB 6MW7 holds the same limits with E147A; Human disease variant (arhinia); also called p.E473G; source: E. coli Rosetta2(DE3), purified (Glutathione 4B Sepharose, TEV cleavage, Superdex200)
B4: SMCHD1(24–580) G137E (domain or fragment, human, UniProt A6NHR9 24-580, looked up)
chain: B1 chain with G114E, A124E
notes: SMCHD1, human, residues 24-580 with the variant G137E (implicated in both arhinia and FSHD2); PDB 6MW7 holds the same limits with E147A; Human disease variant (arhinia and FSHD2); also called p.G137E; source: E. coli Rosetta2(DE3), purified (Glutathione 4B Sepharose, TEV cleavage, Superdex200)
B5: SMCHD1(24–580) T523K (domain or fragment, human, UniProt A6NHR9 24-580, looked up)
chain: B1 chain with A124E, T500K
notes: SMCHD1, human, residues 24-580 with the arhinia variant T523K; PDB 6MW7 holds the same limits with E147A; Human disease variant (arhinia); also called p.T523K; source: E. coli Rosetta2(DE3), purified (Glutathione 4B Sepharose, TEV cleavage, Superdex200)
B6: SMCHD1(24–580) S135C (domain or fragment, human, UniProt A6NHR9 24-580, looked up)
chain: B1 chain with S112C, A124E
notes: SMCHD1, human, residues 24-580 with the arhinia variant S135C; PDB 6MW7 holds the same limits with E147A; Human disease variant (arhinia); also called p.S135C; source: E. coli Rosetta2(DE3), purified (Glutathione 4B Sepharose, TEV cleavage, Superdex200)
B7: SMCHD1(24–580) E473Q (domain or fragment, human, UniProt A6NHR9 24-580, looked up)
chain: B1 chain with A124E, E450Q
notes: SMCHD1, human, residues 24-580 with the arhinia variant E473Q; PDB 6MW7 holds the same limits with E147A; Human disease variant (arhinia); also called p.E473Q; source: E. coli Rosetta2(DE3), purified (Glutathione 4B Sepharose, TEV cleavage, Superdex200)
B8: SMCHD1(24–580) H348R (domain or fragment, human, UniProt A6NHR9 24-580, looked up)
chain: B1 chain with A124E, H325R
notes: SMCHD1, human, residues 24-580 with the arhinia variant H348R; PDB 6MW7 holds the same limits with E147A; Human disease variant (arhinia); also called p.H348R; source: E. coli Rosetta2(DE3), purified (Glutathione 4B Sepharose, TEV cleavage, Superdex200)
B9: SMCHD1(24–580) N139H (domain or fragment, human, UniProt A6NHR9 24-580, looked up)
chain: B1 chain with N116H, A124E
notes: SMCHD1, human, residues 24-580 with the arhinia variant N139H; PDB 6MW7 holds the same limits with E147A; Human disease variant (arhinia); also called p.N139H; source: E. coli Rosetta2(DE3), purified (Glutathione 4B Sepharose, TEV cleavage, Superdex200)

Target: the molecule itself
Assay: crystal structure; seleno-methionine protein at 8.5 mg/ml with 5 mM Mg2+/ATP, sitting drop; SAD phasing, 2.2 Å

Binding result, binds:
B1

Target: the molecule itself
Assay: cross-linking; glutaraldehyde (final 0.0125%), protein at 2 mg/mL in 20 mM HEPES pH 7.5, 100 mM NaCl, 10% glycerol with 5 mM MgCl2 and 5 mM ATP, 40 min at room temperature, diluted 6.25-fold; SDS-PAGE

Binding result, binds:
B2

Target: the molecule itself
Assay: native gel or EMSA; blue-native PAGE, 4–16% Bis-Tris; 2.2 µg/µl protein incubated with 5 mM MgCl2 and ATP 30 min on ice; 1 mM MgCl2 and 1 mM ATP in the running buffers; monomer and dimer bands quantified

Binding result, binds:
B3
B4
B5
B6
B7
B8
B9

Source: PMC6620310, “A ubiquitin-like domain is required for stabilizing the N-terminal ATPase module of human SMCHD1” (Communications Biology, 2019)
